This test has as its target soluble human VEGF receptor Flt-1 3N (human) (UniProt P17948). The experiment in a line: sandwich ELISA, KM1732 coated at 10 µg/ml, detection with biotin-labeled KM1730. In general terms: An ELISA detects its analyte on a solid surface through an enzyme-linked reagent.
Chain of UniProt P17948 (P17948 27-338 limits assumed): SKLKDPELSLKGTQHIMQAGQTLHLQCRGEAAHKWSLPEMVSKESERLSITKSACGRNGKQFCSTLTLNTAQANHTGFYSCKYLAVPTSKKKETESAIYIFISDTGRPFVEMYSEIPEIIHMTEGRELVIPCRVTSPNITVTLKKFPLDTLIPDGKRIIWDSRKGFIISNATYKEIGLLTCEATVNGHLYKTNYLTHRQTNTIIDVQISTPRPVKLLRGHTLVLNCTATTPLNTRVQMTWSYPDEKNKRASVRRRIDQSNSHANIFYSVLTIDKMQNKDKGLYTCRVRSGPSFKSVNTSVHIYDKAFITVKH

B1: anti-human VEGF receptor Flt-1 mouse monoclonal antibody KM1732 (antibody, from another filing, mouse IgG1, V domains shown)
VH: QGQMQQSGAELVKPGASVKLSCKPSGFTFSSNYISWLKQKPGQSLEWIAWIYAGTGDASYNQKFTAKAHVTVDTSSSTAYMQLSSLTTEDSAIYYCARHGGDGYWFAYWGQGTLVTVSA
VL: QLVLTQSPAIMSASQGEKVTMTCSASSSVSYMHWYQQKSGTSPKRWIYDTSKLPSGVPARFSGSGSGTSYSLTISSMEAEDAATYYCQQWSSNPPTFGAGTKLELK
For B1, the minimum measurable concentration was 0.46 ng/mL.

The values above are taken from patent EP1086956B1.
